In paper PMC6080931 (The Journal of Cell Biology, 2018):
One block for each molecule: values may come before it.

Legend:
[1] = target: Atg2 (untagged, overproduced, of the purified Atg2–Atg18 complexes) (S. cerevisiae) (UniProt P53855); test: liposome flotation assay
[2] = target: Atg2 (untagged, overproduced, of the purified Atg2–Atg18 complexes) (S. cerevisiae, UniProt P53855 1-1592); test: liposome flotation assay
Sequence of Atg2 (untagged, overproduced, of the purified Atg2–Atg18 complexes) (P53855 whole entry, one chain of several): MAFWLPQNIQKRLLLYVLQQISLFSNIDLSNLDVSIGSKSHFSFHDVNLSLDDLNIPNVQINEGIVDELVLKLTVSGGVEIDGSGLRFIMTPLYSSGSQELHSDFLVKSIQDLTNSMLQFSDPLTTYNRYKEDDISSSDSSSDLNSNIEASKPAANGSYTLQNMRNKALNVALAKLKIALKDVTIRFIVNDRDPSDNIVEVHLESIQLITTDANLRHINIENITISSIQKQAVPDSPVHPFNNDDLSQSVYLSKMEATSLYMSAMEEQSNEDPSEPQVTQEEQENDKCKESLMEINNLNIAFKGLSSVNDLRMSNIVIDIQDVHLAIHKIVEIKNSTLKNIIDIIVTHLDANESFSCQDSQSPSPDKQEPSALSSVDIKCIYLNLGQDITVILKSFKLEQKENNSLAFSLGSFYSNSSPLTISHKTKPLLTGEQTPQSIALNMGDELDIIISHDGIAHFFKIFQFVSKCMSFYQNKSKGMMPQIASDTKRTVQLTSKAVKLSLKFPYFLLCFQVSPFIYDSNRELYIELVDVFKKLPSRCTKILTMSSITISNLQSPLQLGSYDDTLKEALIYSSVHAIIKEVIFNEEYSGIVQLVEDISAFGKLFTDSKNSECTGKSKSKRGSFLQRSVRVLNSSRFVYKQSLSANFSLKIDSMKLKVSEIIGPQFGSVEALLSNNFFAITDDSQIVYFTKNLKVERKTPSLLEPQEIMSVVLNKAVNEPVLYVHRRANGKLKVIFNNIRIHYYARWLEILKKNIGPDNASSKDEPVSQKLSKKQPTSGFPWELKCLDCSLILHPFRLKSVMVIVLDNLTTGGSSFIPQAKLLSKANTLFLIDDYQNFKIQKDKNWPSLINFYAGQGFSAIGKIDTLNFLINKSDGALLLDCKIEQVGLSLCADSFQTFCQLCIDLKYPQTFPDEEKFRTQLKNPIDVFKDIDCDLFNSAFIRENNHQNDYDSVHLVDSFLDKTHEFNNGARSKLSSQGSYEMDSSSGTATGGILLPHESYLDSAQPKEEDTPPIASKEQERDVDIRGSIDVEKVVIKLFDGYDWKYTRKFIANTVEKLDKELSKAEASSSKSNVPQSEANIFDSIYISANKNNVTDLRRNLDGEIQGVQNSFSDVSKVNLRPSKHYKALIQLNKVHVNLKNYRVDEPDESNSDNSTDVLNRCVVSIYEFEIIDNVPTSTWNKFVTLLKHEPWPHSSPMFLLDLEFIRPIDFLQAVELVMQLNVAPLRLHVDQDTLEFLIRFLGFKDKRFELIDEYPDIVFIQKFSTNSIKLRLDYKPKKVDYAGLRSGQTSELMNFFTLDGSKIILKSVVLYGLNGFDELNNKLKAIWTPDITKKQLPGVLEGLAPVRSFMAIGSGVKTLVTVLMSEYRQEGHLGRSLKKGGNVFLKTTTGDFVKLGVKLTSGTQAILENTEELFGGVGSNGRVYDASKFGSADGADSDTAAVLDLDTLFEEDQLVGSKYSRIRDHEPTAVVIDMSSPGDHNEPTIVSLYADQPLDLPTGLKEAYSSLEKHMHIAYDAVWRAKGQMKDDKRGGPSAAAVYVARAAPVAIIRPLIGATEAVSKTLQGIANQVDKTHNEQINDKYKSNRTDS

Sequence of Atg2 (untagged, overproduced, of the purified Atg2–Atg18 complexes) (S. cerevisiae) (P53855 whole entry, one chain of several): as above

percent of Atg18^FAAG on liposomes with Atg9 [1]: < 58%
Molecule: Atg18^FAAG-TAP (overproduced, mutant unable to bind PtdIns3P) (from UniProt P43601 1-500) (natural protein)

stoichiometry N [2]: ~1 ratio
B1: Atg18-TAP (overproduced, of the purified Atg2–Atg18 complexes) (natural protein, S. cerevisiae, UniProt P43601 1-500, looked up)
chain: MSDSSPTINFINFNQTGTCISLGTSKGFKIFNCEPFGKFYSEDSGGYAIVEMLFSTSLLALVGIGDQPALSPRRLRIINTKKHSIICEVTFPTSILSVKMNKSRLVVLLQEQIYIYDINTMRLLHTIETNPNPRGLMAMSPSVANSYLVYPSPPKVINSEIKAHATTNNITLSVGGNTETSFKRDQQDAGHSDISDLDQYSSFTKRDDADPTSSNGGNSSIIKNGDVIVFNLETLQPTMVIEAHKGEIAAMAISFDGTLMATASDKGTIIRVFDIETGDKIYQFRRGTYATRIYSISFSEDSQYLAVTGSSKTVHIFKLGHSMSNNKLDSDDSNMEEAAADDSSLDTTSIDALSDEENPTRLAREPYVDASRKTMGRMIRYSSQKLSRRAARTLGQIFPIKVTSLLESSRHFASLKLPVETNSHVMTISSIGSPIDIDTSEYPELFETGNSASTESYHEPVMKMVPIRVVSSDGYLYNFVMDPERGGDCLILSQYSILMD
